The values that follow come from the DeepSol protein solubility set.

This data set can be described thus: soluble on expression in E. coli; label from the status in PepcDB or PDB records.
In the case of “MRIVYCISGTCNSGGMERVLSNKANYLAAHGYEVTIVTTDQRGRRPFFALDGRIECVDLDVNYETNNGKSFFNKLVHYPFKQLKHKRRLTKVLNLIKPDITVSMFCNDVAFLPSIQDGSKKVLEVHFSRFKRLQYDRKGLWRLADKWRNRNEQRQVACFDKFVVLTHEDKDYWEGHANIEVIPNAQTFACDVPAALESKTVVAVGRYTYQKGFDMLLRAWRRVCDSIDDWQLHIVGEGEMKESLQQQILDLSLEDRVELCPATSDIQSVYREASVLVLSSRYEGFGMVLLEAQTAGVPTVSFDCKCGPSDIVADGVTGYLVPANDIPALAEKLLVLMRDETLRKQMGRNAFADASRFSEKAVMQRWTDLFENFR”, the “soluble on expression in E. coli” value is listed as “not soluble”.
The same measure for “MRKNILITGVHGYIGNALKDKLIEQGHQVDQINVRNQLWKSTSFKDYDVLIHTAALVHNNSPQARLSDYMQVNMLLTKQLAQKAKAEDVKQFIFMSTMAVYGKEGHVGKSDQVDTQTPMNPTTNYGISKKFAEQALQELISDSFKVAIVRPPMIYGAHCPGNFQRLMQLSKRLPIIPNINNQRSALYIKHLTAFIDQLISLEVTGVYHPQDSFYFDTSSVMYEIRRQSHRKTVLINMPSMLNKYFNKLSVFRKLFGNLIYSNTLYENNNALEIIPGKMSLVIADIMDETTTKDKA”: “not soluble”.
As for “MRKSDREAFLSSVLGNEQPPAHLARTVIEEKLRNAIIDGSLPSGTALRQQELATLFGVSRMPVREALRQLEAQSLLRVETHKGAVVAPLITEDAVDAYALRILLESEALRLSIPLLDADDLAAAASYIEQLEVETDFGQIGRLNRMFHLSLYAKTHNKRLMRLVEEGLNEEERFLRFNLSSMGLGKLSQDDHWQLLRLAEQKAVEPCVEALQYHLNRGVQAVTQYLQSQKAGNVKPARTKKNTPA”, the entry is “soluble”.
As for “MRKVLVFLKNSKKAFETFKRVERVLKDLNLSYKKFINRKELFKVLKPKDYELFLVIGGDGTFLSAARIASRFGVPLVGVNEGRFGFLTEIKKEEIKKVLPLVLEGRAKLQERLMIDVYLRSRNRLRYLGNYLNDAVISKSSIARIIRTKVFINGEEVLEVFGDGVILSTPTGSTAYALSAGGPIVYPESQNLLFVPICPHTLSNRPLVLPSKFEVKFKVVSENMEAFLTLDGQEGFHLKKGDEVIVKRSRYVCRMYSHPRKSFFGILKEKLRWG”, the entry is “soluble”; as for “MRKVPIITADEAAKLIKDGDTVTTSGFVGNAIPEALDRAVEKRFLETGEPKNITYVYCGSQGNRDGRGAEHFAHEGLLKRYIAGHWATVPALGKMAMENKMEAYNVSQGALCHLFRDIASHKPGVFTKVGIGTFIDPRNGGGKVNDITKEDIVELVEIKGQEYLFYPAFPIHVALIRGTYADESGNITFEKEVAPLEGTSVCQAVKNSGGIVVVQVERVVKAGTLDPRHVKVPGIYVDYVVVADPEDHQQSLDCEYDPALSGEHRRPEVVGEPLPLSAKKVIGRRGAIELEKDVAVNLGVGAPEYVASVADEEGIVDFMTLTAESGAIGGVPAGGVRFGASYNADALIDQGYQFDYYDGGGLDLCYLGLAECDEKGNINVSRFGPRIAGCGGFINITQNTPKVFFCGTFTAGGLKVKIEDGKVIIVQEGKQKKFLKAVEQITFNGDVALANKQQVTYITERCVFLLKEDGLHLSEIAPGIDLQTQILDVMDFAPIIDRDANGQIKLMDAALFAEGLMGLKEMKS”, “soluble”.
On to “MRLFIAEKPSLARAIADVLPKPHRKGDGFIECGNGQVVTWCIGHLLEQAQPDAYDSRYARWNLADLPIVPEKWQLQPRPSVTKQLNVIKRFLHEASEIVHAGDPDREGQLLVDEVLDYLQLAPEKRQQVQRCLINDLNPQAVERAIDRLRSNSEFVPLCVSALARARADWLYGINMTRAYTILGRNAGYQGVLSVGRVQTPVLGLVVRRDEEIENFVAKDFFEVKAHIVTPADERFTAIWQPSEACEPYQDEEGRLLHRPLAEHVVNRISGQPAIVTSYNDKRESESAPLPFSLSALQIEAAKRFGLSAQNVLDICQKLYETHKLITYPRSDCRYLPEEHFAGRHAVMNAISVHAPDLLPQPVVDPDIRNRCWDDKKVDAHHAIIPTARSSAINLTENEAKVYNLIARQYLMQFCPDAVFRKCVIELDIAKGKFVAKARFLAEAGWRTLLGSKERDEENDGTPLPVVAKGDELLCEKGEVVERQTQPPRHFTDATLLSAMTGIARFVQDKDLKKILRATDGLGTEATRAGIIELLFKRGFLTKKGRYIHSTDAGKALFHSLPEMATRPDMTAHWESVLTQISEKQCRYQDFMQPLVGTLYQLIDQAKRTPVRQFRGIVAPGSGGSADKKKAAPRKRSAKKSPPADEVGSGAIAHHHHHH”, for which the “soluble on expression in E. coli” value is reported as “soluble”.
